In the RNAGym collection of RNA variant scans (doi:10.1073/pnas.2313332121):

B1: TPR t1 (parent)
chain: GACCAAUCUGCCCUCAGAGCUCGAGAACAUCUUCGGAUGCAGAGGAGGCAGGCUUCGGUGGCGCGAUAGCGCCAACGUCCUCAACCUCCAAUGCAUCCCACCACAUGAUGAUGCCUGAAGAGCCUUGGUUUUUUG

Variants of: B1
Experiment: polymerase ribozyme fitness, log enrichment relative to wild type (log ratio); higher = more active; in vitro selection for triplet polymerase activity
Summary of the method: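 To select mutant libraries of each subunit of a heterodimeric triplet polymerase ribozyme, built by PCR and transcribed, each was annealed with a biotinylated primer, partner subunit and triplets, then incubated frozen at −7 °C. Extended constructs were gel-excised, captured on streptavidin beads and amplified by RT-PCR, in one round carried out in triplicate. Illumina sequencing of input and output libraries kept genotypes with ≥10 input reads and ≥1 read per output. Fitness is the base-2 logarithm of genotype enrichment relative to wild-type enrichment, from inverse-variance-weighted replicate averages.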

Q: Which “polymerase ribozyme fitness (log ratio)” value does the source give for A16C G52A A119G here?
A: The value was 0.273.

Q: Which “polymerase ribozyme fitness (log ratio)” value does the source give for A18G U78A C86A C97A C102U U109A G113C here?
A: The value was -6.86.

Q: For A18C C56G, which “polymerase ribozyme fitness (log ratio)” value is on record?
A: Its value is -2.15.

Q: Which “polymerase ribozyme fitness (log ratio)” value does the source give for A16U C62U C94U here?
A: The value was -1.79.

Q: For G17U C20G G52A C73A G113A A119G, which “polymerase ribozyme fitness (log ratio)” value is on record?
A: Its value is -1.98.

Q: For G17U C53G U96C U126C, which “polymerase ribozyme fitness (log ratio)” value is on record?
A: The value was -4.06.

Q: With G17U C34G A68U C72G C85A C123A as the variant, how does the “polymerase ribozyme fitness (log ratio)” value read?
A: The value was -7.76.

Q: With A16U G45C C56G A83C as the variant, how does the “polymerase ribozyme fitness (log ratio)” value read?
A: Its value is -4.35.

Q: Which “polymerase ribozyme fitness (log ratio)” value does the source give for A18U C76A here?
A: Its value is -3.36.

Q: With A16G G65U C73G C89A C123A as the variant, how does the “polymerase ribozyme fitness (log ratio)” value read?
A: The value was -7.69.

Q: Which “polymerase ribozyme fitness (log ratio)” value does the source give for G17A G69U U81A U116A here?
A: The value was -2.91.

Q: Which “polymerase ribozyme fitness (log ratio)” value does the source give for A18C A43G G47C U54C C114U U126A here?
A: The value was -5.87.

Q: Which “polymerase ribozyme fitness (log ratio)” value does the source give for A16C C124A here?
A: The value was 0.87.

Q: For A18U A41G U106A C124G, which “polymerase ribozyme fitness (log ratio)” value is on record?
A: Its value is -1.51.

Q: Which “polymerase ribozyme fitness (log ratio)” value does the source give for G17U U21A C62G A75C C124U here?
A: The value was -4.5.

Q: For G17U U78A C79G C115U, which “polymerase ribozyme fitness (log ratio)” value is on record?
A: Its value is -6.15.

Q: Which “polymerase ribozyme fitness (log ratio)” value does the source give for A18C C79G A90U G113A here?
A: Its value is -4.1.

Q: Which “polymerase ribozyme fitness (log ratio)” value does the source give for A18C A43G C85G U96G here?
A: Its value is -4.07.

Q: For G17U C88U, which “polymerase ribozyme fitness (log ratio)” value is on record?
A: Its value is -2.42.

Q: For G17A G61U, which “polymerase ribozyme fitness (log ratio)” value is on record?
A: Its value is -2.6.

Q: For G17A G61A, which “polymerase ribozyme fitness (log ratio)” value is on record?
A: The value was -2.34.

Q: With A16U G52U G69A C76U U78C A121C as the variant, how does the “polymerase ribozyme fitness (log ratio)” value read?
A: The value was -3.43.

Q: For A16G G93A U109G, which “polymerase ribozyme fitness (log ratio)” value is on record?
A: Its value is -5.43.

Q: With A18U G47U G52A as the variant, how does the “polymerase ribozyme fitness (log ratio)” value read?
A: The value was -5.39.

Q: With A18G C56G A103C C115G U129G U130C as the variant, how does the “polymerase ribozyme fitness (log ratio)” value read?
A: Its value is -6.47.

Q: With A16U C89A as the variant, how does the “polymerase ribozyme fitness (log ratio)” value read?
A: Its value is -2.6.

Q: Which “polymerase ribozyme fitness (log ratio)” value does the source give for A18C G39C A41U C123U here?
A: The value was -2.25.

Q: Which “polymerase ribozyme fitness (log ratio)” value does the source give for G17C C49G C62A here?
A: The value was -7.71.

Q: With A16U A27U G61A as the variant, how does the “polymerase ribozyme fitness (log ratio)” value read?
A: Its value is -4.42.

Q: For A18C C115G A119G, which “polymerase ribozyme fitness (log ratio)” value is on record?
A: Its value is 1.41.

Q: With G17U G47A G71C as the variant, how does the “polymerase ribozyme fitness (log ratio)” value read?
A: The value was -3.03.

Q: Which “polymerase ribozyme fitness (log ratio)” value does the source give for G17U G47A G71U here?
A: The value was -3.24.

Q: With A16G A43G C124U U125A as the variant, how does the “polymerase ribozyme fitness (log ratio)” value read?
A: The value was -1.48.

Q: With A16U C62U U81G A121U as the variant, how does the “polymerase ribozyme fitness (log ratio)” value read?
A: The value was -2.2.

Q: For A16C C56A, which “polymerase ribozyme fitness (log ratio)” value is on record?
A: Its value is -2.44.

Q: For A16C C56U, which “polymerase ribozyme fitness (log ratio)” value is on record?
A: The value was -2.

Q: For A16C C56G, which “polymerase ribozyme fitness (log ratio)” value is on record?
A: Its value is -2.73.

Q: Which “polymerase ribozyme fitness (log ratio)” value does the source give for G17A U55A G63U A84G here?
A: The value was -7.59.

Q: Which “polymerase ribozyme fitness (log ratio)” value does the source give for G17U U55A G77C C86G C124U here?
A: Its value is -3.47.

Q: Which “polymerase ribozyme fitness (log ratio)” value does the source give for A18U A41C C88U U92C C104U A111C U125G U132C here?
A: Its value is -4.68.

Q: For G17U U38A G61U U125A, which “polymerase ribozyme fitness (log ratio)” value is on record?
A: Its value is -3.94.

Q: Which “polymerase ribozyme fitness (log ratio)” value does the source give for G17U G52U C62A C70U here?
A: Its value is -4.32.

Q: Which “polymerase ribozyme fitness (log ratio)” value does the source give for A18U C72G here?
A: The value was -2.48.

Q: With A16U U32C U38G G71A C114G A121U U133A as the variant, how does the “polymerase ribozyme fitness (log ratio)” value read?
A: The value was -6.3.

Q: With G17C C98U C102A A111G A121G G122A as the variant, how does the “polymerase ribozyme fitness (log ratio)” value read?
A: The value was -6.68.

Q: For A18C U32C G120C, which “polymerase ribozyme fitness (log ratio)” value is on record?
A: The value was -0.763.

Q: Which “polymerase ribozyme fitness (log ratio)” value does the source give for A16G A41C A50U U81A U106A here?
A: Its value is -2.3.

Q: For A18G C22A G42C U54G G63C U112G, which “polymerase ribozyme fitness (log ratio)” value is on record?
A: The value was -5.39.

Q: Which “polymerase ribozyme fitness (log ratio)” value does the source give for A16U G77A G117U here?
A: The value was -3.13.

Q: Which “polymerase ribozyme fitness (log ratio)” value does the source give for A16U G117C G120A here?
A: The value was -4.52.

Q: With A18U C22G G58U U59G U87G as the variant, how does the “polymerase ribozyme fitness (log ratio)” value read?
A: Its value is -4.24.

Q: With A18U A41C as the variant, how does the “polymerase ribozyme fitness (log ratio)” value read?
A: The value was -2.34.

Q: Which “polymerase ribozyme fitness (log ratio)” value does the source give for G17A G61A C73U A75C here?
A: The value was -3.99.

Q: With A16U U78C as the variant, how does the “polymerase ribozyme fitness (log ratio)” value read?
A: The value was -2.22.

Q: With A16G A46U C124U as the variant, how does the “polymerase ribozyme fitness (log ratio)” value read?
A: Its value is -0.673.

Q: With A18C A41G C101G as the variant, how does the “polymerase ribozyme fitness (log ratio)” value read?
A: The value was -5.9.

Q: With G17U A18C G57C as the variant, how does the “polymerase ribozyme fitness (log ratio)” value read?
A: The value was -2.66.

Q: With G17C A29U U125G as the variant, how does the “polymerase ribozyme fitness (log ratio)” value read?
A: The value was -5.1.

Q: For A16U C49A G69U, which “polymerase ribozyme fitness (log ratio)” value is on record?
A: Its value is -1.01.

Q: With A16C G47U A119U as the variant, how does the “polymerase ribozyme fitness (log ratio)” value read?
A: Its value is -5.65.

Q: For A16G G48A G110A, which “polymerase ribozyme fitness (log ratio)” value is on record?
A: The value was -2.05.

Q: With G17C G25U C34U G69U U112G as the variant, how does the “polymerase ribozyme fitness (log ratio)” value read?
A: The value was -7.59.

Q: For A18C G45A C53U, which “polymerase ribozyme fitness (log ratio)” value is on record?
A: Its value is -4.6.

Q: Which “polymerase ribozyme fitness (log ratio)” value does the source give for A16G G117C here?
A: Its value is -3.97.

Q: With A18U C72G C115U G128A as the variant, how does the “polymerase ribozyme fitness (log ratio)” value read?
A: The value was -4.57.

Q: For A16U G93U C123A U133C, which “polymerase ribozyme fitness (log ratio)” value is on record?
A: Its value is -3.02.

Q: Which “polymerase ribozyme fitness (log ratio)” value does the source give for A16G G61U A66U U81A U106A U116C here?
A: Its value is -0.459.

Q: With G17U C115G as the variant, how does the “polymerase ribozyme fitness (log ratio)” value read?
A: The value was -0.423.

Q: With A16U A43U U112C as the variant, how does the “polymerase ribozyme fitness (log ratio)” value read?
A: The value was -1.59.

Q: For A18U G48U C64U C88U, which “polymerase ribozyme fitness (log ratio)” value is on record?
A: Its value is -2.9.

Q: With A16U C56G as the variant, how does the “polymerase ribozyme fitness (log ratio)” value read?
A: The value was -2.56.

Q: With A16C U112C as the variant, how does the “polymerase ribozyme fitness (log ratio)” value read?
A: Its value is -0.921.

Q: For A18U G48A C49A C85G U133A, which “polymerase ribozyme fitness (log ratio)” value is on record?
A: The value was -3.22.

Q: For A18U C72U C97U, which “polymerase ribozyme fitness (log ratio)” value is on record?
A: Its value is -3.15.

Q: With G17C C80U A83U C115G as the variant, how does the “polymerase ribozyme fitness (log ratio)” value read?
A: Its value is -2.85.

Q: Which “polymerase ribozyme fitness (log ratio)” value does the source give for G17C U54G C94A U112G here?
A: Its value is -6.12.

Q: Which “polymerase ribozyme fitness (log ratio)” value does the source give for A16U C72G G122A here?
A: The value was -2.16.

Q: Which “polymerase ribozyme fitness (log ratio)” value does the source give for G17U C89G C104U here?
A: The value was -2.94.

Q: For G17U U55A, which “polymerase ribozyme fitness (log ratio)” value is on record?
A: The value was -2.43.

Q: Which “polymerase ribozyme fitness (log ratio)” value does the source give for A18G C124U here?
A: Its value is -0.797.

Q: With A18U C124A as the variant, how does the “polymerase ribozyme fitness (log ratio)” value read?
A: The value was -0.753.

Q: With A18U C88U as the variant, how does the “polymerase ribozyme fitness (log ratio)” value read?
A: Its value is -2.25.

Q: Which “polymerase ribozyme fitness (log ratio)” value does the source give for G17U C49A G61A here?
A: Its value is -2.67.
